Data: the RNAGym collection of RNA variant scans (doi:10.7554/elife.80360)

B1: HDV Ribozyme (parent)
chain: GGCCGGCAUGGUCCCAGCCUCCUCGCUGGCGCCGGCUGGGCAACAUUCCGAGGGGACCGUCCCCUCGGUAAUGGCGAAUGGGACCCA

Variants of: B1
Assay: self-cleavage, relative activity (ratio to wild type); higher = more cleavage; co-transcriptional

Point of comparison: GGCCGGCAUGGUCGCAGCCUCCUCGCUGGCGCCGGCUGGGCAACAUUCCGAGGGGACCGUCCCCUCGGUAAUGGCGAGUGGGACCCA, self-cleavage 0.317. Against it:
- CGCCGGCAUGGUCCCAGCCUCCUCGCUGGCGCCGGCUGGGCAACAUUCCGAGGGGACCGUCCCCUUGGUAAUGGCGAAUGGGACCCA — lower, 0.208
- GGCCAGCAUGGUCCCAGCCUCCUCGCUGGCGCCUGCUGGGCAACAUUCCGAGGGGACCGUCCCCUCGGUAAUGGCGAAUGGGACCCA — lower, 0.0282
- GGCCGGCAUGGUCCCAGCCUCCUCGCUGGCGCCGGCUGGGCAACAUUCCGAGGGGAACGUCCCCUCGGUAAUGGCGGAUGGGACCCA — higher, 1.17
- GGCCGGCAUGGUCCCAGCCUCGUCGCUGGCGCCGGCUGGGCAACAUUCCGAGGGGACCGUCCCCUCGGUAAUGGCGAAUGCGACCCA — lower, 0
- GGCCGGCAUGGUCCCUGCCUCCUCGCUGGCGCCGGCUGGGCAACAUUCCGAGGGGACCGUCCCCUCGGUAAUGGCGAAUGGGACCCU — higher, 0.862
- GGCCGGCAUGGUCCCAGCCUCCUCGCUGGCGCGGGCUGGGCAACAUUCCGAGGGGAACGUCCCCUCGGUAAUGGCGAAUGGGACCCA — lower, 0.147
- GGCCGGCAUAGUCCCAGCCUCCUCGCUUGCGCCGGCUGGGCAACAUUCCGAGGGGACCGUCCCCUCGGUAAUGGCGAAUGGGACCCA — lower, 0.0848
- GGCCGGCAUGGUCCCAGUCUCCUCGCUGGCGCCGGCCGGGCAACAUUCCGAGGGGACCGUCCCCUCGGUAAUGGCGAAUGGGACCCA — higher, 0.554
- GGCCGGCAUGGUCCCAGCCUCCUCGCUGGCGCCGGCUGGGCAACAUUCCGAGGGGACCGUCGCCUCGGUAAUGCCGAAUGGGACCCA — lower, 0.172
- GGCCGGCAUGGUCCGAGCCUCCUCGCUGGCGCCGGCUGGGCAACAUUCGGAGGGGACCGUCCCCUCGGUAAUGGCGAAUGGGACCCA — higher, 0.499
- GGCCGGCAGGGUCCCAGCCUCCUCGCUGGCGCCGGCUGGGCAACAUUCCGAGGGGACCGUCCCCUCGGUAAUGGCGAAUGGGCCCCA — higher, 0.554
- GGCCGGCAUGGGCCCAGCCUCCUAGCUGGCGCCGGCUGGGCAACAUUCCGAGGGGACCGUCCCCUCGGUAAUGGCGAAUGGGACCCA — higher, 0.65
- GGCCGGCAUGGUCCCAGCCUCCUCGCUGGCGCCGGCUGUGCAACAUUCCGAGGGGCCCGUCCCCUCGGUAAUGGCGAAUGGGACCCA — higher, 0.701
- GGCCGGCAAGGUCCCAGCCUCCUGGCUGGCGCCGGCUGGGCAACAUUCCGAGGGGACCGUCCCCUCGGUAAUGGCGAAUGGGACCCA — lower, 0.111
- GGCCGGCAUGGUCCCAGCUUCCUCGCUGGCGCCGGCUGGGCAACAUUCCGAGGGGACGGUCCCCUCGGUAAUGGCGAAUGGGACCCA — lower, 0.0959
- GGCCGGCAUGGUCCCAGCAUCCUCGCUGGCGCCGGCUGGGCAACAUUCCGAGGGGACCGUCCCCUCGGUACUGGCGAAUGGGACCCA — lower, 0.0396
- GGCCGGCAUGGUCCCAGCCUCCUCGCUGGCGCCGGCUGGGCAACAUUCCGAGGGGACCGUCCCCUCGUUAAUGGGGAAUGGGACCCA — lower, 0.228
- GGUCGGCAUGGUCCCAGCCUCCUCGCUGGCGCCGGCUGGGCAACAUUCCGAGGGGACCGUCCCCUCGCUAAUGGCGAAUGGGACCCA — higher, 0.781
- GGCCGGCCUGGUCCCAGCCUCCUCGCUGGCGCCGGCUGGGCAACAUUCCGAGGGGACCGUCCCCUCGGUAAUGGCGAAUGGGACGCA — higher, 0.798
- GGCCGGCAUGGUGCCAGCCUCCUCGCUGGCACCGGCUGGGCAACAUUCCGAGGGGACCGUCCCCUCGGUAAUGGCGAAUGGGACCCA — lower, 0.0923
- GGCCGUCAUGGUCCCAGCCUCCUCGCUGGCGCCGGCUGGGCAUCAUUCCGAGGGGACCGUCCCCUCGGUAAUGGCGAAUGGGACCCA — lower, 0.212
- GGCCGGCAUGGUCCCAGCCACCUCGCUGGCGCCGGCUGGGCAACAUUCCGAGGGGACCAUCCCCUCGGUAAUGGCGAAUGGGACCCA — lower, 0.0302
- GGCCGGCAUGGUCCCAGCCUCCUCGCUGGCGCCGGCUGGGCAACAUUCCGAGGGGACCGGCCCCUCGGUAUUGGCGAAUGGGACCCA — higher, 0.918
- GGCCGGCAUGGUCCCAGCCUCCUCGCGGGCGCCGGUUGGGCAACAUUCCGAGGGGACCGUCCCCUCGGUAAUGGCGAAUGGGACCCA — higher, 0.322
- GGCCGGCAUGGUCCCAGCCUCCUCGCUGGCGCCGGCUGGUCAACAUUCCGAGGGGACCGUCCCCUCGGUAAUGGCGAUUGGGACCCA — lower, 0.191
- GGCCGGCAUGGUCCCAGACUCCUCGCUGGCGCCGGCUGGGCAACAUUCCGAGGGGACCGCCCCCUCGGUAAUGGCGAAUGGGACCCA — lower, 0
- GGCCGGCAUGGUCCCAGCCUCCUCGCUGGCGCCGGCUGGGCAACAUGCCGAGGGGACCGUCCCCUUGGUAAUGGCGAAUGGGACCCA — higher, 1.23
- GGCCGGCAUGGUCACAGCCUCCGCGCUGGCGCCGGCUGGGCAACAUUCCGAGGGGACCGUCCCCUCGGUAAUGGCGAAUGGGACCCA — lower, 0.222
- GGCCGGCUUGGUCCCAGCCUCCUCGCUGGCGCCGGAUGGGCAACAUUCCGAGGGGACCGUCCCCUCGGUAAUGGCGAAUGGGACCCA — lower, 0.0811
- GGCCGGCAUGGUCCCAGGCUCCUCGCUGGCGCCGGCUGGGCAACAUUCCGAGGGGACCGUCCCCUCGGUAAUGGCGAAUAGGACCCA — lower, 0.0563
- GGCCGGCAUGGUCCCAGCCUCCUCGCUAGCGCCGGCUGGGCAACAUUCCGAGGGGACCGUCCCCUCGGUAAUGGCGAGUGGGACCCA — lower, 0.185
